Measured values as given in patent publication US9028816 (Ablynx, dated 2015).

What was measured:
[1] = biological target: human serum albumin (HSA) (human, UniProt P02768 25-609); assay: phage on blotted plasma (1/10)
pig serum albumin = pig serum albumin (pig, UniProt P08835 25-607); assay: phage on blotted plasma (1/10)
[2] = biological target: T1, mouse serum albumin (MSA) (mouse, UniProt P07724 25-608); assay: ELISA: MSA coated at 5 µg/ml, purified nanobody in 1/3 dilutions, detection with rabbit anti-nanobody serum and anti-rabbit alkaline phosphatase, PNPP (Example 50)
T1 construct: also called mouse albumin

collagen type I = biological target: T2, collagen type I; assay: ELISA: collagen type I coated at 25 µg/ml, purified VHH in twofold dilutions, detection as in Example 7 (Example 34) [collagen type I]
T2 construct: coated on the microtiter plate

[3] = biological target: T3, human von Willebrand factor (vWF) (human, UniProt P04275 764-2813); assay: ELISA: coated vWF, purified vWF A1-specific VHH, as in Example 7 (Example 20)
T3 construct: also called Human vWF

T1 sequence (P07724 25-608 limits assumed): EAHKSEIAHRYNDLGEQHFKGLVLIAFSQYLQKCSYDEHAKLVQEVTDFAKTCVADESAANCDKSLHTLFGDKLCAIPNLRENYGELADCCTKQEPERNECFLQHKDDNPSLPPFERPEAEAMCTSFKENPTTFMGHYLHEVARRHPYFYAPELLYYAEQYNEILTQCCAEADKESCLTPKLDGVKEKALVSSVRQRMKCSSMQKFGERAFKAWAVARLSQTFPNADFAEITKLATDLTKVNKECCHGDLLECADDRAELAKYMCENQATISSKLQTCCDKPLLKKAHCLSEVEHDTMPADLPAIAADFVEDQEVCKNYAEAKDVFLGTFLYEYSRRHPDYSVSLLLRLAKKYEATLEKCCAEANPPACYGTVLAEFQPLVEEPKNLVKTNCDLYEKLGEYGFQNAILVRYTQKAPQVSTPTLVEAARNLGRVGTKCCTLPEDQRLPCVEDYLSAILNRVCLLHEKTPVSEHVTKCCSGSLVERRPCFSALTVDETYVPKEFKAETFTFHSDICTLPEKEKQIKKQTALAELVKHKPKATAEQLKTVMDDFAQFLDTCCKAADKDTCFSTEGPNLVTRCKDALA
Sequence of pig serum albumin (P08835 25-607 limits assumed): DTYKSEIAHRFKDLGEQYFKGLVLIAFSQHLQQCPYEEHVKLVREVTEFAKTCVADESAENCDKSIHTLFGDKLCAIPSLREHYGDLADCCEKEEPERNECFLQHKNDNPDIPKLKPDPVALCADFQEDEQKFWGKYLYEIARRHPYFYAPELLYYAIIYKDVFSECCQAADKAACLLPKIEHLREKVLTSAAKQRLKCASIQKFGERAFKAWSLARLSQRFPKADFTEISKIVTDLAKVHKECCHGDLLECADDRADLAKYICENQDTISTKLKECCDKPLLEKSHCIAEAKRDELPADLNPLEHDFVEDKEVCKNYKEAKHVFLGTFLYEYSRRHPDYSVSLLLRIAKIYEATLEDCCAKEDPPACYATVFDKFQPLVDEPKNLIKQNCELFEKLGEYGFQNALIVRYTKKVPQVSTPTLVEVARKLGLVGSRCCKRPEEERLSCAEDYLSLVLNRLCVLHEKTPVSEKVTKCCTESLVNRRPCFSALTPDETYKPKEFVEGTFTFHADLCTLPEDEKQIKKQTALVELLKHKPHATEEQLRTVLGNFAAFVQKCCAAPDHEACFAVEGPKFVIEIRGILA

B1: MSA24 (VHH)
VHH: QVQLQESGGGLVQPGNSLRLSCAASGFTFRNFGMSWVRQAPGKEPEWVSSISGSGSNTIYADSVKDRFTISRDNAKSTLYLQMNSLKPEDTAVYYCTIGGSLSRSSQGTQVTVSS
binding result [1]: binds
binding result (pig serum albumin): binds
EC50 (read off the curve) [2]: ~0.6 nM

B2: 3L-41 (VHH)
VHH: QVQLQDSGGGLVQAGGSLRLSCAASGRTFRRYAMGWYRQAPGKQRVLVAAITSNGRPSVADSVKGRFTISSDTAKNTVYLQMNSLKPEDTALYYCTLYNTSADYYNQSPSSWGQGTQVTVLS
EC50 (read off the curve) (collagen type I): ~10 nM

B3: Z29 (VHH)
VHH: QVQLQESGGGSVQAGDSLTLSCAASGRTFSMHAMGWFRQAPGKEREFVAAISPSAFTEYADSLKGRFTVSRDNAKKLVWLQMNGLKPEDTAAYYCAARRGAFTATTAPLYDYWGQGTQVTVSS
EC50 (read off the curve) [3]: ~70 nM

B4: 3P1-31 (VHH)
VHH: QVQLQESGGGLVQAGGSLRLSCAASGRTFRRYAMGWYRQAPGKQRELVAAITSGGRTSVADTVKGRFTISSDNAKNTVYLQMNSLKPEDAAVYYCTLYNSTTNYYNQSPSSWGQGTQVTVSS
EC50 (read off the curve) (collagen type I): ~200 nM
